These results are taken from patent publication US6284456.

For this series, the system named is HIV-1 Tat Tat-1 delta1-47 (Human immunodeficiency virus 1 (HXB2)). Description: EMSA. The conditions noted are these: truncated Tat-1 (construct assumed delta1-47). For orientation: In EMSA bound probe runs differently from free probe, usually more slowly.

In the case of HIV-2 TAR-2 RNA wt (+1 to +123), the binding signal (fold higher affinity than for TAR-1) came out at 4.
